The term stoichiometry N denotes a count of units in the complex or per binding partner.

The target in assay [1] is proteoopsin, retinal-free N-terminally truncated green-light absorbing proteorhodopsin lacking the signal peptide (marine γ-proteobacteria). Put plainly: cryo-EM structure; single particle cryo-EM of purified oligomers in 20 mM BTP-HCl pH 7.5, 150 mM NaCl, 0.25% Cymal-5; GPR-A18L at 4.2 mg/mL, PO at 4.0 mg/mL.
For assay [2], the target named is green-light absorbing proteorhodopsin A18L variant with uncleavable N-terminal signal peptide (marine γ-proteobacteria). The assay is described as above.
Assay [3] has the same target. In words: native gel or EMSA; BN-PAGE, NativePAGE 4-16% Bis-Tris gel, about 5 µg protein, 0.4% Cymal-5 and 0.25% Coomassie G-250 in the sample, run in ice water.

Values joined by “and” are separate entries in the source; they are usually repeats but may differ in a detail not shown here. Equal values may be shown once.

For the substance “proteoopsin, retinal-free N-terminally truncated green-light absorbing proteorhodopsin lacking the signal peptide (natural protein)”, the stoichiometry N in assay [1] was found to be 5. Consider “green-light absorbing proteorhodopsin A18L variant with uncleavable N-terminal signal peptide (natural protein)”, for which the stoichiometry N in assay [2] was 5 and 6; in assay [3] it was 5 and 6.

The values above are taken from publication PMC11322631.
